Key:
[1] = target: p65/RelA 1-306 (complete RHD) (human) (UniProt Q04206); assay: fluorescence thermal shift (SYPRO Orange); details: apparent KD, two equivalent κB sites considered; 1.5 µM protein; ΔTmax 1.678 °C; Thermal shift: 50 mM Tris-HCl pH 7.5, 225 mM NaCl, 2.25% glycerol, 25 min at 4 °C, then 25-95 °C melt; EMSA: 10 mM Tris-HCl pH 7.5, 0.5 mM EDTA, 65 mM KCl, 5 mM
[2] = target: T1, p50 1-367 (complete RHD) (human) (UniProt P19838); assay: fluorescence thermal shift (SYPRO Orange); details: apparent KD, two equivalent κB sites considered; 1.5 µM protein; ΔTmax 2.462 °C; Thermal shift: 50 mM Tris-HCl pH 7.5, 225 mM NaCl, 2.25% glycerol, 25 min at 4 °C, then 25-95 °C melt; EMSA: 10 mM Tris-HCl pH 7.5, 0.5 mM EDTA, 65 mM KCl, 5 mM
T1 sequence: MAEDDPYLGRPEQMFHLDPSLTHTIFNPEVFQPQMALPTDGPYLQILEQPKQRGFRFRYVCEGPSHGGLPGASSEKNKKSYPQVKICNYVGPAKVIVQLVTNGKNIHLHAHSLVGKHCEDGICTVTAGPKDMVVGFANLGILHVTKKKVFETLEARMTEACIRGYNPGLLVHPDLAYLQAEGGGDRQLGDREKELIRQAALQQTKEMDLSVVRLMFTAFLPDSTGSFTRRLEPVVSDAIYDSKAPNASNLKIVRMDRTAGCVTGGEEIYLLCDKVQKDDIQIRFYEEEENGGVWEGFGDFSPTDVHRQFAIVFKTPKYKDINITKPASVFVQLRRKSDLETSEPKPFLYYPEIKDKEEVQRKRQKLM

p65/RelA = p65/RelA (Homo sapiens, UniProt Q04206); assay: inhibition of […]κB dsDNA binding by fluorescence thermal shift assay (also lowers Tm of the protein without DNA); EMSA
p50 = target: T2, p50 (Homo sapiens, UniProt P19838); assay: inhibition of dsDNA binding by fluorescence thermal shift assay
T2 construct: gene NFKB1; p50_1-367 (aa 1–367, complete RHD), HIS-tagged
T2 sequence (P19838 1-367): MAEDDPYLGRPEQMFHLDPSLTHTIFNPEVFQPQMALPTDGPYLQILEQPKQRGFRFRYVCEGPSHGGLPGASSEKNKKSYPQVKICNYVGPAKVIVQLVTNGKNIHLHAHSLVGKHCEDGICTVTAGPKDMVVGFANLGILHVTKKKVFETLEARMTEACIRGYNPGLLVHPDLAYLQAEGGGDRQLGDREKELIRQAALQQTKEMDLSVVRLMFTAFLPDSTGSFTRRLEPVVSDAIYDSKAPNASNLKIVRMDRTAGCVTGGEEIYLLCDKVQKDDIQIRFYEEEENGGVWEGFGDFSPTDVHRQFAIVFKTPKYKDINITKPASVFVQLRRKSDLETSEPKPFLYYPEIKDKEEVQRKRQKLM

p50 1-367 (complete RHD) = p50 1-367 (complete RHD) (human, UniProt P19838 1-367); assay: fluorescence thermal shift (SYPRO Orange); 10 µM DNA, 1.5 µM protein; Tm raised about 2-3 °C (1κB and 2κB range); Thermal shift: 50 mM Tris-HCl pH 7.5, 225 mM NaCl, 2.25% glycerol, 25 min at 4 °C, then 25-95 °C melt; EMSA: 10 mM Tris-HCl pH 7.5, 0.5 mM EDTA, 65 mM KCl, 5 mM MgCl2, 1 mM DTT, 100 µg/mL BSA, 10% glycerol, 50 ng/µl poly(dI-dC), 45 min at 30 °C; details: protein: recombinant; tags: His, N-terminal Myc; chain copies: 2; label: none; only one strand given
[3] = target: p65/RelA 1-306 (complete RHD) (human, UniProt Q04206 1-306); assay: fluorescence thermal shift (SYPRO Orange); 10 µM DNA, 1.5 µM protein; Tm raised about 1-1.5 °C (1κB and 2κB range); Thermal shift: 50 mM Tris-HCl pH 7.5, 225 mM NaCl, 2.25% glycerol, 25 min at 4 °C, then 25-95 °C melt; EMSA: 10 mM Tris-HCl pH 7.5, 0.5 mM EDTA, 65 mM KCl, 5 mM MgCl2, 1 mM DTT, 100 µg/mL BSA, 10% glycerol, 50 ng/µl poly(dI-dC), 45 min at 30 °C; details: protein: recombinant; chain copies: 2; label: none; only one strand given
Sequence of p65/RelA 1-306 (complete RHD) (Q04206 1-306): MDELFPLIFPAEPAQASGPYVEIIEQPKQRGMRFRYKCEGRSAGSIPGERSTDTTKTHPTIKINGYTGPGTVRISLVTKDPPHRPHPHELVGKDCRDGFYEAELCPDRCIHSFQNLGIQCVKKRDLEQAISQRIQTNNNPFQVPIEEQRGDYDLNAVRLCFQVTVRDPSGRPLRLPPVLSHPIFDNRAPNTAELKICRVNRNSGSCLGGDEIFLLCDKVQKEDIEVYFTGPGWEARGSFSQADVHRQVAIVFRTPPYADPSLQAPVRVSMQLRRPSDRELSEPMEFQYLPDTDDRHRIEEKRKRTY

Sequence of p65/RelA (Q04206 1-306): as above
Sequence of p65/RelA 1-306 (complete RHD) (human) (Q04206 1-306): as above

Molecule: AATTCGGGACTTTCCCGTCGGGACTTTCC (double strand) [2κB dsDNA]
- Kd [1]: 2.23 µM
- Kd [2]: 0.794 µM

Molecule: CC1=C(CO)C(=O)O[C@@H]([C@@H](C)[C@H]2CC[C@H]3[C@@H]4C[C@H]5O[C@]56[C@@H](O)C=CC(=O)[C@]6(C)[C@H]4CC[C@]23C)C1 [WFA, withaferin A]
- IC50 (p65/RelA): ~16.4 µM
- IC50 (p50): ~19.1 µM

B1: 1κB dsDNA (dsDNA)
DNA 1: AGTTGAGGGGACTTTCCCAGGC
DNA 2: GCCTGGGAAAGTCCCCTCAACT
- binding result (p50 1-367 (complete RHD)): binds
- binding result [3]: binds
